Among the targets are DLG1 PDZ1 (UniProt Q12959 220-317); SNX27 PDZ (UniProt Q96L92 41-135); MAGI1 PDZ2 (UniProt Q96QZ7 471-554); NHERF2 PDZ2 (UniProt Q15599 142-280).
Assay in all cases: fluorescence polarisation
For orientation: Polarisation of emitted light reports the rotation of a fluorescent probe.

Among the data in PMC9881875 (bioRxiv, 2023) are Ki and IC50 values, retold here.

Chain of NHERF2 PDZ2 (Q15599 142-280): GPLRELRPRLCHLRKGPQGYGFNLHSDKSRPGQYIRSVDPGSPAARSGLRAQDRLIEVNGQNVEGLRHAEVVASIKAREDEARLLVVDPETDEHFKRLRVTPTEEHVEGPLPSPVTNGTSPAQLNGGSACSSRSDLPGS
Chain of DLG1 PDZ1 (Q12959 220-317): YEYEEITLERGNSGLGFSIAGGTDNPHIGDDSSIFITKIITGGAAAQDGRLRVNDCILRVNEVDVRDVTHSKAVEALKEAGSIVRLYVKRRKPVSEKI
Chain of MAGI1 PDZ2 (Q96QZ7 471-554): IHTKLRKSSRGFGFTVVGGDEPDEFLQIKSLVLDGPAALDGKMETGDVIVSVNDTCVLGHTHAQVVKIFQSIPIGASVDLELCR

B1: _(SSRT)CFTR peptide (peptide)
peptide: SSRTVQDTRL
As usually defined, the Ki is the dissociation constant of the complex between target and ligand, obtained from inhibition or displacement. Low readings indicate higher affinity, high ones lower affinity. As a reminder, the IC50 is the midpoint of a concentration-inhibition curve. The low end stands for inhibition by little substance, the high end for a need for much substance. B1: the figures for the Ki with DLG1 PDZ1, with SNX27 PDZ and with NHERF2 PDZ2 were greater than 1000 µM, 0.46 ± 0.11 µM and 1.7 ± 0.4 µM, respectively. This molecule also registered an IC50 with MAGI1 PDZ2 greater than 1000 µM.
